Measurements published in US20140179896A1 (published 2014).

Each binder was assayed against T1, human vascular endothelial growth factor receptor-2 Fc chimera (KDR-Fc) (human, UniProt P35968 20-764) (assay: radioactive equilibrium binding, 1 nM KDR-Fc).
T1 construct: range 1-764; purchased from R&D Systems; also called hKDR; human VEGF-R2-Fc; not shown: human IgG1 Fc
In short: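 Percent of input bound is specific binding: total ³⁵S eluted from Protein A beads minus nonspecific bead binding without receptor. The binder (0.2 or 0.5 nM) was incubated with titrated VEGF-R2-Fc in buffer B, 30° C, 1 h.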

T1 sequence (P35968 20-764 limits assumed, change not shown, form in doubt): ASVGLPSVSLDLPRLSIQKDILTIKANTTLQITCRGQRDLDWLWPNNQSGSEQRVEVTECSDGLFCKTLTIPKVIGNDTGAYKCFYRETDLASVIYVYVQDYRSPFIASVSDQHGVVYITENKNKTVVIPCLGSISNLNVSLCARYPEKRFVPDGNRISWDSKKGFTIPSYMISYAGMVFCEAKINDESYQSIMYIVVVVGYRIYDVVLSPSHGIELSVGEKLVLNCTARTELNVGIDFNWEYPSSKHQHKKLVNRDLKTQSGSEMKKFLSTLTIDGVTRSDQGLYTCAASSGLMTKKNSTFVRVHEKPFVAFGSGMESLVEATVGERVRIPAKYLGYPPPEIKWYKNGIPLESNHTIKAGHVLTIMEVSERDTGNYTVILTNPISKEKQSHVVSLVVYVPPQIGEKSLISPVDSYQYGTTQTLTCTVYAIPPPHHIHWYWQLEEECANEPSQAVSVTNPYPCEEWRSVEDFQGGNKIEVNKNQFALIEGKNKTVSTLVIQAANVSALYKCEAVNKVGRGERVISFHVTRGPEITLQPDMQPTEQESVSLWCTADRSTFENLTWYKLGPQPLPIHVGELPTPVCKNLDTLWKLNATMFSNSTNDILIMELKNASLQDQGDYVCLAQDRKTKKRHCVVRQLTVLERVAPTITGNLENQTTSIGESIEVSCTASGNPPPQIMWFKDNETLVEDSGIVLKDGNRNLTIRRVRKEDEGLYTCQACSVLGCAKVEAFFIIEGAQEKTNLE

Binder | Binding to 1 nM KDR, %
4A12 PR3 (designed binder, tag left out) EVVAATPTSLLISWRHPHFPTRYYRITYGETGGNSPVQEFTVPLQPPTATISGLKPGVDYTITGYAVTVAQNDHELLTPISINYRT | 13%
1′DelB7 PR4 (designed binder, tag left out) EVVAATPTSLLISWRHPHFPTRYYRITYGETGGNSPVQEFTVPLQPPTATISGLKPGVDYTITGYAVTVAQNDHELKTPISINYRT | 8%
1′DelH6 PR4 (designed binder, tag left out) EVVAATPTSLLISWRHPHFPTRYYRITYGETGGNSPVQEFTVPLQPPTATISGLKPGVDYTITGYAVTVGQYDHELITPISINYRT | 6%
1′DelB10 PR4 (designed binder, tag left out) EVVAATPTSLLISWRHPHFPTRYYRITYGETGGNSPVQEFTVPLQPPTATISGLKPGVDYTITGYAVTVARNDHELMTPISINYRT | 11%
1′DelG9 PR4 (designed binder, tag left out) EVVAATPTSLLISWRHPHFPTRYYRITYGETGGNSPVQEFTVPLQPPTATISGLKPGVDYTITGYAVTVAQSDHELMTPISINYRT | 10%
1′DelH9 PR4 (designed binder, tag left out) EVVAATPTSLLISWRHPHFPTRYYRITYGETGGNSPVQEFTVPLQPPTATISGLKPGVDYTITGYAVTVGQNDHELITPISINYRT | 10%
1′DelH1 PR4 (designed binder, tag left out) EVVAATPTSLLISWRHPHFPTRYYRITYGETGGNSPVQEFTVPLQPPTATISGLKPGVDYTITGYAVTVAQNGHELITPISINYRT | 9%
1′DelD3 PR4 (designed binder, tag left out) EVVAATPTSLLISWRHPHFPTRYYRITYGETGGNSPVQEFTVPLQPPTATISGLKPGVDYTITGYAVTLAQNNHELITPISINYRT | 12%
1′DelH7 PR4 (designed binder, tag left out) EVVAATPTSLLISWRHPHFPTRYYRITYGETGGNSPVQEFTVPLQPPTATISGLKPGVDYTITGYAVTVGQNDQELLTPISINYRT | 11%
1′DelA9 PR4 (designed binder, tag left out) EVVAATPTSLLISWRHPHFPTRYYRITYGETGGNSPVQEFTVPLQPPTATISGLKPGVDYTITGYAVTLAQNDHELMTPISINYRT | 13%
1′DelC10 PR4 (designed binder, tag left out) EVVAATPTSLLISWRHPHFPTRYYRITYGETGGNSPVQEFTVPLQPPTATISGLKPGVDYTITGYAVTVAKNDHELITPISINYRT | 8%
1′DelG11 PR4 (designed binder, tag left out) EVVAATPTSLLISWRHPHFPTRYYRITYGETGGNSPVQEFTVPLQPPTATISGLKPGVDYTITGYAVTLAQNGHVLITPISINYRT | 11%
1′DelC6 PR4 (designed binder, tag left out) EVVAATPTSLLISWRHPHFPTRYYRITYGETGGNSPVQEFTVPLQPPTATISGLKPGVDYTITGYAVTVAQNEHELLTPISINYRT | 12%
1′DelE12 PR4 (designed binder, tag left out) EVVAATPTSLLISWRHPHFPTRYYRITYGETGGNSPVQEFTVPLQPPTATISGLKPGVDYTITGYAVTVAQSDHELFTPISINYRT | 13%
1′DelC5 PR4 (designed binder, tag left out) EVVAATPTSLLISWRHPHFPTRYYRITYGETGGNSPVQEFTVPLQPPTATISGLKPGVDYTITGYAVTLAQNDHEIMTPISINYRT | 11%
1′DelC4 PR4 (designed binder, tag left out) EVVAATPTSLLISWRHPHFPTRYYRITYGETGGNSPVQEFTVPLQPPTATISGLKPGVDYTITGYAVTVAQSNHELMTPISINYRT | 9%
1′DelC2 PR4 (designed binder, tag left out) EVVAATPTSLLISWRHPHFPTRYYRITYGETGGNSPVQEFTVPLQPPTATISGLKPGVDYTITGYAVTVDRNDHELFTPISINYRT | 13%
1′DelE11 PR4 (designed binder, tag left out) EVVAATPTSLLISWRHPHFPTRYYRITYGETGGNSPVQEFTVPLQPPTATISGLKPGVDYTITGYAVTVAQNDRELITPISINYRT | 9%

Continued, values first:

Binding to 1 nM KDR, % | Binder
10% | 3F4 PR3 (designed binder, tag left out) EVVAATPTSLLISWRHPHFPTRYYRITYGETGGNSPVQEFTVPLQPPTATISGLKPGVDYTITGYAVTMGYEDHELITPISINYRT
8% | 2′DelH2 PR4 (designed binder, tag left out) EVVAATPTSLLISWRHPHFPTRYYRITYGETGGNSPVQEFTVPLQPPTATISGLKPGVDYTITGYAVTVSQYGHELITPISINYRT
10% | 3F11 PR3 (designed binder, tag left out) EVVAATPTSLLISWRHPHFPTRYYRITYGETGGNSPVQEFTVPLQPPTATISGLKPGVDYTITGYAVTVGLTDHVLLTPISINYRT
13% | 3G5 PR3 (designed binder, tag left out) EVVAATPTSLLISWRHPHFPTRYYRITYGETGGNSPVQEFTVPLQPPTATISGLKPGVDYTITGYAVTLGENDRKLITPISINYRT
10% | 3D4 PR3 (designed binder, tag left out) EVVAATPTSLLISWRHPHFPTRYYRITYGETGGNSPVQEFTVPLQPPTATISGLKPGVDYTITGYAVTVGWNDHELITPISINYRT
11% | 2′DelB9 PR4 (designed binder, tag left out) EVVAATPTSLLISWRHPHFPTRYYRITYGETGGNSPVQEFTVPLQPPTATISGLKPGVDYTITGYAVTVGPTDHELLTPISINYRT
12% | 3E6 PR3 (designed binder, tag left out) EVVAATPTSLLISWRHPHFPTRYYRITYGETGGNSPVQEFTVPLQPPTATISGLKPGVDYTITGYAVTVPQNGHELITMISINYRT
13% | 3G1 PR3 (designed binder, tag left out) EVVAATPTSLLISWRHPHFPTRYYRITYGETGGNSPVQEFTVPLQPPTATISGLKPGVDYTITGYAVTMAQNVRELLTPISINYRT
12% | 3C5 PR3 (designed binder, tag left out) EVVAATPTSLLISWRHPHFPTRYYRITYGETGGNSPVQEFTVPLQPPTATISGLKPGVDYTITGYAVTGDHNDRELMTPISINYRT
11% | 2′DelB11 PR4 (designed binder, tag left out) EVVAATPTSLLISWRHPHFPTRYYRITYGETGGNSPVQEFTVPLQPPTATISGLKPGVDYTITGYAVTVGQNDHELMTPISINYRT
11% | 2′DelB10 PR4 (designed binder, tag left out) EVVAATPTSLLISWRHPHFPTRYYRITYGETGGNSPVQEFTVPLQPPTATISGLKPGVDYTITGYAVTVTHNDHELLTPISINYRT
9% | 3F1 PR3 (designed binder, tag left out) EVVAATPTSLLISWRHPHFPTRYYRITYGETGGNSPVQEFTVPLQPPTATISGLKPGVDYTITGYAVTLTHNEQYLFTPISINYRT
10% | 3D11 PR3 (designed binder, tag left out) EVVAATPTSLLISWRHPHFPTRYYRITYGETGGNSPVQEFTVPLQPPTATISGLKPGVDYTITGYAVTLGQENQELITPISINYRT
12% | 3A8 PR3 (designed binder, tag left out) EVVAATPTSLLISWRHPHFPTRYYRITYGETGGNSPVQEFTVPLQPPTATISGLKPGVDYTITGYAVTEAHHGHELMIPISINYRT
7% | 2′Del F12 PR4 (designed binder, tag left out) EVVAATPTSLLISWRHPHFPTRYYRITYGETGGNSPVQEFTVPLQPPTATISGLKPGVDYTITGYAVTLTQHDHELLTPISINYRT
11% | 3F5 PR3 (designed binder, tag left out) EVVAATPTSLLISWRHPHFPTRYYRITYGETGGNSPVQEFTVPLQPPTATISGLKPGVDYTITGYAVTVAYNEHELYTPISINYRT
13% | 2′Del E12 PR4 (designed binder, tag left out) EVVAATPTSLLISWRHPHFPTRYYRITYGETGGNSPVQEFTVPLQPPTATISGLKPGVDYTITGYAVTEGPNGHELITPISINYRT
4% | 2′F6-PR4 (designed binder, tag left out) VSDVPRDLEVVAATPTSLLISWRHPHFPTRYYRITYGETGGNSPVQEFTVPLQPPTATISGLKPGVDYTITGYAVTLGWNDHELYIPISINYRT
5% | 2′F7-PR4 (designed binder, tag left out) VSDVPRDLEVVAATPTSLLISWRHPHFPTRYYRITYGETGGNSPVQEFTVPLQPPTATISGLKPGVDYTITGYAVTLGLRDRELFVPISINYRT
3% | 2′H5-PR4 (designed binder, tag left out) VSDVPRDLEVVAATPTSLLISWRHPHFPTRYYRITYGETGGNSPVQEFTVPLQPPTATISGLKPGVDYTITGYAVTLGKDVRELLTPISINYRT
12% | 2′G11-PR4 (designed binder, tag left out) VSDVPRDLEVVAATPTSLLISWRHPHFPTRYYRITYGETGGNSPVQEFTVPLQPPTATISGLKPGVDYTITGYAVTGGQMNRVLMTPISINYRT
